Test results reported in PMC7671035.

Experiments:
[1] = molecular target: LY3041658 (human); experiment: SPR
[2] = molecular target: human CXCL11 (human) (UniProt O14625); experiment: ELISA
human CXCL11 (human), sequence (O14625 22-94): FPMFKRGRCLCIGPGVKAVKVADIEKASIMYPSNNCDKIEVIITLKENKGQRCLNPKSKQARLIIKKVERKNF

human CXCL11, sequence (O14625 22-94): as above
human CXCL9, sequence (Q07325 23-125): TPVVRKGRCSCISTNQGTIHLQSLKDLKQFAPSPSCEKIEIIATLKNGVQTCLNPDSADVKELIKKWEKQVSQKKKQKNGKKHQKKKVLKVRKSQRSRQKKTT

Kd [1] [nM]	fold shift in EC50 compared with the ELR+CXC chemokines [2] [fold]	Substance
100	–	human CXCL9 (from UniProt Q07325 23-125) (ligand)
100	–	human CXCL11 (from UniProt O14625 22-94) (ligand)
–	200	LY3041658 (antibody)
